B1: HDV Ribozyme (parent)
chain: GGCCGGCAUGGUCCCAGCCUCCUCGCUGGCGCCGGCUGGGCAACAUUCCGAGGGGACCGUCCCCUCGGUAAUGGCGAAUGGGACCCA

Variants of: B1
Assay: self-cleavage, relative activity (ratio to wild type); higher = more cleavage; co-transcriptional

First: G54U U65A
Second: G54U G55A
The self-cleavage of the first is lower: 0.513 for the first, 1.01 for the second.

Compared with G54C, G54A is lower in self-cleavage: 0.98 for the first, 0.961 for the second.

Going from G54U to G54A U60C, the self-cleavage rises from 0.98 to 1.06.

First: G54A U60A
Second: G55A C64G
The self-cleavage of the first is lower: 0.758 for the first, 0.962 for the second.

First: G55A C64A
Second: G54U G74C
The self-cleavage of the first is higher: 0.95 for the first, 0.182 for the second.

First: G55A G76C
Second: G55A G76U
The self-cleavage of the first is higher: 1.09 for the first, 0.918 for the second.

Going from G55A G76A to G54U A78C, the self-cleavage falls from 1 to 0.158.

First: G53U C86A
Second: G55C C57G
The self-cleavage of the first is lower: 1.07 for the first, 1.14 for the second.

Compared with G53U G82A, G54C U72C is higher in self-cleavage: 0.496 for the first, 0.69 for the second.

First: G54C U72A
Second: G55A C75U
The self-cleavage of the first is higher: 0.702 for the first, 0.208 for the second.

Compared with G55A C75G, G55A C62G is higher in self-cleavage: 0.136 for the first, 0.686 for the second.

First: G53C C64A
Second: G53C C64U
The self-cleavage of the first is higher: 0.724 for the first, 0.703 for the second.

Going from G53C A56G to G53U U60G, the self-cleavage rises from 0.962 to 0.972.

Going from G55A G68A to G54C A83C, the self-cleavage falls from 0.831 to 0.332.

Compared with G53A G59A, G53A G76C is higher in self-cleavage: 0.851 for the first, 1.08 for the second.

First: G53C A83G
Second: G53C A83U
The self-cleavage of the first is higher: 0.815 for the first, 0.332 for the second.

First: G53U G81C
Second: G53A U79A
The self-cleavage of the first is lower: 0.385 for the first, 0.814 for the second.

Going from G53C U60C to G54A U69A, the self-cleavage falls from 1 to 0.982.

First: G54A U69C
Second: G54C C63A
The self-cleavage of the first is lower: 0.95 for the first, 1.02 for the second.

Compared with G53U G55U, G53A G80A is lower in self-cleavage: 0.915 for the first, 0.218 for the second.

Going from G53U G76U to G54U U69A, the self-cleavage falls from 0.939 to 0.899.

Going from G54U U69G to G54A G55C, the self-cleavage rises from 1.03 to 1.04.

Compared with G53C A87G, G54U C58G is higher in self-cleavage: 0.971 for the first, 0.997 for the second.

Going from G54U C58A to G54A A71C, the self-cleavage falls from 1.07 to 0.753.

Going from G54A A71G to G55A G67A, the self-cleavage rises from 0.959 to 0.997.

First: G55A U65C
Second: G55A U65A
The self-cleavage of the first is lower: 0.863 for the first, 1.06 for the second.

Going from G53U U65A to G53C C85U, the self-cleavage rises from 0.69 to 0.808.

Going from G53C C84G to G53C C84A, the self-cleavage rises from 0.696 to 0.76.

First: G54U C57U
Second: G54U C57A
The self-cleavage of the first is lower: 0.993 for the first, 0.997 for the second.

Compared with G53C A77U, G54C G76U is higher in self-cleavage: 0.639 for the first, 1.11 for the second.

First: G54C G76C
Second: G54C A71C
The self-cleavage of the first is higher: 0.981 for the first, 0.608 for the second.

First: G54C A71G
Second: G53C C58G
The self-cleavage of the first is lower: 0.646 for the first, 1 for the second.

First: G54A G82U
Second: G54A A70G
The self-cleavage of the first is lower: 0.205 for the first, 0.79 for the second.

Compared with G55A U79A, G55A U79G is higher in self-cleavage: 0.582 for the first, 0.85 for the second.

Going from G55A C66G to G53C C86U, the self-cleavage falls from 0.843 to 0.799.

Compared with G53A G68A, G53A G68C is lower in self-cleavage: 0.743 for the first, 0.604 for the second.

Going from G53A G68U to G55A G81A, the self-cleavage falls from 0.807 to 0.535.

First: G53C C63U
Second: G53C C57U
The self-cleavage of the first is higher: 0.997 for the first, 0.969 for the second.

First: G53C C57G
Second: G53U G67U
The self-cleavage of the first is higher: 1.14 for the first, 0.715 for the second.

Going from G54C C64A to G53U C75U, the self-cleavage falls from 0.574 to 0.277.

Going from G55A G80U to G55C A56G, the self-cleavage rises from 0.13 to 1.15.

First: G54A A78C
Second: G54A A78G
The self-cleavage of the first is lower: 0.247 for the first, 0.332 for the second.

Going from G55C C58G to G54C C61G, the self-cleavage rises from 1.11 to 1.16.

Going from G53U G68U to G54A A87U, the self-cleavage rises from 0.703 to 0.922.

Going from G54A G67A to G55A A83G, the self-cleavage rises from 0.698 to 0.919.

First: G54U C62U
Second: G54U C62G
The self-cleavage of the first is lower: 0.98 for the first, 1.08 for the second.

Compared with G54C U69G, G53C A71U is higher in self-cleavage: 1.07 for the first, 1.1 for the second.

Compared with G53C G80C, G53C G80U is higher in self-cleavage: 0.0755 for the first, 0.293 for the second.

Going from G53C G80A to G53C A78C, the self-cleavage falls from 0.307 to 0.0678.

Going from G53U A71C to G54A U65C, the self-cleavage rises from 0.538 to 0.696.

Compared with G54A U79C, G54A U79G is higher in self-cleavage: 0.411 for the first, 0.643 for the second.

First: G54C U79C
Second: G54C G68A
The self-cleavage of the first is lower: 0.482 for the first, 0.858 for the second.

Going from G53C G76U to G55A A70C, the self-cleavage rises from 0.967 to 1.06.

Compared with G55A A70U, G53C G68U is lower in self-cleavage: 0.831 for the first, 0.475 for the second.

Compared with G53C G68A, G54C G73U is lower in self-cleavage: 0.577 for the first, 0.205 for the second.

Compared with G55A C58G, G53U C85A is lower in self-cleavage: 0.941 for the first, 0.931 for the second.

Going from G54U A70G to G53A G73U, the self-cleavage falls from 1.03 to 0.304.

Going from G53A G73A to G53A G73C, the self-cleavage falls from 0.44 to 0.265.

Going from G54U G67A to G55A G73U, the self-cleavage falls from 1.01 to 0.457.

Compared with G55A G73C, G53U A56C is higher in self-cleavage: 0.658 for the first, 0.831 for the second.

First: G54A C61A
Second: G54C G80A
The self-cleavage of the first is higher: 1.07 for the first, 0.362 for the second.

Going from G54U C64A to G54U C64U, the self-cleavage rises from 0.486 to 0.905.

First: G53C U79C
Second: G54A G81U
The self-cleavage of the first is higher: 0.47 for the first, 0.229 for the second.

Compared with G53U C64U, G53U C84U is lower in self-cleavage: 0.853 for the first, 0.821 for the second.

First: G54U A83U
Second: G53A G74A
The self-cleavage of the first is lower: 0.446 for the first, 0.554 for the second.

First: G54C G74A
Second: G54C G74C
The self-cleavage of the first is higher: 0.314 for the first, 0.198 for the second.

First: G54A G76C
Second: G53A G67A
The self-cleavage of the first is higher: 1.04 for the first, 1.02 for the second.

First: G53A G67C
Second: G55A G74A
The self-cleavage of the first is higher: 1.04 for the first, 0.457 for the second.

First: G53A U65A
Second: G54C G59U
The self-cleavage of the first is lower: 0.884 for the first, 1.15 for the second.

Compared with G55A A56G, G54U U60G is higher in self-cleavage: 0.882 for the first, 0.989 for the second.

Going from G54U C85A to G54U C85U, the self-cleavage rises from 0.964 to 1.02.

Going from G55C A83C to G55C A83U, the self-cleavage rises from 0.314 to 0.575.

Compared with G54C A77G, G53U A83C is lower in self-cleavage: 0.831 for the first, 0.6 for the second.

First: G53U A83G
Second: G54A C64G
The self-cleavage of the first is higher: 0.739 for the first, 0.657 for the second.

First: G53C C61A
Second: G55A G82C
The self-cleavage of the first is higher: 1.04 for the first, 0.356 for the second.

Compared with G55A G82A, G53U C63A is higher in self-cleavage: 0.324 for the first, 1.2 for the second.

Going from G54A A56G to G53A U72A, the self-cleavage falls from 0.991 to 0.642.

First: G53A G81C
Second: G54C U60C
The self-cleavage of the first is lower: 0.266 for the first, 1.22 for the second.

G54C U60A and G53C G54A are the same in self-cleavage: 1.08 for the first, 1.08 for the second.

First: G53U A70C
Second: G54C C62G
The self-cleavage of the first is lower: 0.774 for the first, 0.855 for the second.

Going from G54C C58U to G53A G54A, the self-cleavage falls from 1.11 to 0.896.

First: G53A G82A
Second: G54U G82A
The self-cleavage of the first is higher: 0.466 for the first, 0.277 for the second.

First: G54C A87G
Second: G54U G73A
The self-cleavage of the first is higher: 0.936 for the first, 0.776 for the second.

G55C A70G showed a self-cleavage of 0.848.

Reference: the RNAGym collection of RNA variant scans (doi:10.7554/elife.80360)
